Laboratory results from paper PMC8586334, “Distinct RPA domains promote recruitment and the helicase-nuclease activities of Dna2” (Nature Communications, 2021).

Molecular target: Rfa1-AB-Y193D (S. cerevisiae)
Test: cell-based or functional assay

unwinding of 2.2-kbp-long dsDNA by Dna2-E675A, stimulation by the Rfa1-AB variant, against wild type Rfa1-AB: ~2.5 fold less efficient
B1: S. cerevisiae Dna2-E675A (nuclease-dead) (enzyme, UniProt P38859 1-1522, looked up)
chain: MPGTPQKNKRSASISVSPAKKTEEKEIIQNDSKAILSKQTKRKKKYAFAPINNLNGKNTKVSNASVLKSIAVSQVRNTSRTKDINKAVSKSVKQLPNSQVKPKREMSNLSRHHDFTQDEDGPMEEVIWKYSPLQRDMSDKTTSAAEYSDDYEDVQNPSSTPIVPNRLKTVLSFTNIQVPNADVNQLIQENGNEQVRPKPAEISTRESLRNIDDILDDIEGDLTIKPTITKFSDLPSSPIKAPNVEKKAEVNAEEVDKMDSTGDSNDGDDSLIDILTQKYVEKRKSESQITIQGNTNQKSGAQESCGKNDNTKSRGEIEDHENVDNQAKTGNAFYENEEDSNCQRIKKNEKIEYNSSDEFSDDSLIELLNETQTQVEPNTIEQDLDKVEKMVSDDLRIATDSTLSAYALRAKSGAPRDGVVRLVIVSLRSVELPKIGTQKILECIDGKGEQSSVVVRHPWVYLEFEVGDVIHIIEGKNIENKRLLSDDKNPKTQLANDNLLVLNPDVLFSATSVGSSVGCLRRSILQMQFQDPRGEPSLVMTLGNIVHELLQDSIKYKLSHNKISMEIIIQKLDSLLETYSFSIIICNEEIQYVKELVMKEHAENILYFVNKFVSKSNYGCYTSISGTRRTQPISISNVIDIEENIWSPIYGLKGFLDATVEANVENNKKHIVPLAVKTGKSRSVSYEVQGLIYTLLLNDRYEIPIEFFLLYFTRDKNMTKFPSVLHSIKHILMSRNRMSMNFKHQLQEVFGQAQSRFELPPLLRDSSCDSCFIKESCMVLNKLLEDGTPEESGLVEGEFEILTNHLSQNLANYKEFFTKYNDLITKEESSITCVNKELFLLDGSTRESRSGRCLSGLVVSEVVEHEKTEGAYIYCFSRRRNDNNSQSMLSSQIAANDFVIISDEEGHFCLCQGRVQFINPAKIGISVKRKLLNNRLLDKEKGVTTIQSVVESELEQSSLIATQNLVTYRIDKNDIQQSLSLARFNLLSLFLPAVSPGVDIVDERSKLCRKTKRSDGGNEILRSLLVDNRAPKFRDANDDPVIPYKLSKDTTLNLNQKEAIDKVMRAEDYALILGMPGTGKTTVIAEIIKILVSEGKRVLLTSYTHSAVDNILIKLRNTNISIMRLGMKHKVHPDTQKYVPNYASVKSYNDYLSKINSTSVVATTCLGINDILFTLNEKDFDYVILDEASQISMPVALGPLRYGNRFIMVGDHYQLPPLVKNDAARLGGLEESLFKTFCEKHPESVAELTLQYRMCGDIVTLSNFLIYDNKLKCGNNEVFAQSLELPMPEALSRYRNESANSKQWLEDILEPTRKVVFLNYDNCPDIIEQSEKDNITNHGEAELTLQCVEGMLLSGVPCEDIGVMTLYRAQLRLLKKIFNKNVYDGLEILTADQFQGRDKKCIIISMVRRNSQLNGGALLKELRRVNVAMTRAKSKLIIIGSKSTIGSVPEIKSFVNLLEERNWVYTMCKDALYKYKFPDRSNAIDEARKGCGKRTGAKPITSKSKFVSDKPIIKEILQEYES
